{"source": "patent US20260158070A1", "about": "(UNIVERSITY OF MARYLAND BALTIMORE, published 2026)", "binders": {"B1": {"name": "Human Anti-K-Ras Antibody 1 (antibody, human IgG1, lambda, N297G, V domains shown)", "VH": "EVQLVQSGGGVVQPGRSLRLSCAASGFTSRHPGMHWVRQAPGKGLEWVAVISHDGSKKYYADSVKGRFTISRDNSKNTLFVQLSSLRPEDTAVYYCATSLYSSMDLWGQGTTVTVSS", "VL": "QSVVTQPPSVSAAPGQKVTISCSGSNSNIGKNYVSWFQQVPGTAPKLLIFEDNQRPSGIPDRFSASKSGTSASLAISGLQSEDEADYYCAAWDDKFGVHWVFGGGTKLTVLG", "notes": "also called human K-Ras antibody 1; Human K-RAS Antibody 1"}}, "key": {"[1]": {"biological_target": "T1, wild-type K-Ras 4A (in RASless MEFs) (Homo sapiens (Human), UniProt P01116 1-186)", "T1 construct": "Expressed by lentiviral transduction in RASless mouse embryonic fibroblasts; stained on live cells by flow cytometry, in lysates by western blot; also called MEF-K-Ras-4A", "assay": "flow cytometry, surface staining of RASless MEFs, 10 µg/ml"}, "[2]": {"biological_target": "T2, wild-type K-Ras 4B (in RASless MEFs) (Homo sapiens (Human), UniProt P01116-2 1-185)", "T2 construct": "Expressed by lentiviral transduction in RASless mouse embryonic fibroblasts; stained on live cells by flow cytometry, in lysates by western blot; also called MEF-K-Ras-4B; 4B splice variant of K-Ras", "assay": "flow cytometry, surface staining of RASless MEFs, 10 µg/ml"}}}
{"binder": "B1", "values": [{"measurement": "binding result", "setting": "[1]", "value": "binds"}, {"measurement": "binding result", "setting": "[2]", "value": "binds"}]}
